From US20200024360A1 (Janssen / Centocor, published 2020)

T1: chimpanzee PSMA, full length (Pan troglodytes, UniProt Q04609 1-750 (human entry))
T1 construct: On transfected HEK293F cells; also called chimp PSMA; H2Q3K5_PANTR
T1 chain: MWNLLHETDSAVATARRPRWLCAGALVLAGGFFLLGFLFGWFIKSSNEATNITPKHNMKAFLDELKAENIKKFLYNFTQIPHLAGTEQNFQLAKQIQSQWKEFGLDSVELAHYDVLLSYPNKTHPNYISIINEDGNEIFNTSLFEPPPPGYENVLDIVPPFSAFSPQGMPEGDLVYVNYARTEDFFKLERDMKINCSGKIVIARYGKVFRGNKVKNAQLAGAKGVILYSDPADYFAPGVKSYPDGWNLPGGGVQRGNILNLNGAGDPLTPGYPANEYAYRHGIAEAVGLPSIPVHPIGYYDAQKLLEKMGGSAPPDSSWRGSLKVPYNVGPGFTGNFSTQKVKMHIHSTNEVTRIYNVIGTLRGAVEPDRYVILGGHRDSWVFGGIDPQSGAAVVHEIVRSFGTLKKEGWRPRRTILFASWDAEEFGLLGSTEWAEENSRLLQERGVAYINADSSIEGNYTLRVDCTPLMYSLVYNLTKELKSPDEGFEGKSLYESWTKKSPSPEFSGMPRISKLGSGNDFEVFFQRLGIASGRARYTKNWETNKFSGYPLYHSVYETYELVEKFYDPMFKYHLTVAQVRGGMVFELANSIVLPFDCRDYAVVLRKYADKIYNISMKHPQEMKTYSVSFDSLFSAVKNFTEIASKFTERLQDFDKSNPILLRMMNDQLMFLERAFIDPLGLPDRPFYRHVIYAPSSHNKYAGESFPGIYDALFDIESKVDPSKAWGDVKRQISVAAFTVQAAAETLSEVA

T2: Cynomolgous monkey PSMA, full length (Macaca fascicularis, UniProt Q04609 1-750 (human entry))
T2 construct: On transfected HEK293F cells; also called cyno PSMA; EHH56646.1
T2 chain: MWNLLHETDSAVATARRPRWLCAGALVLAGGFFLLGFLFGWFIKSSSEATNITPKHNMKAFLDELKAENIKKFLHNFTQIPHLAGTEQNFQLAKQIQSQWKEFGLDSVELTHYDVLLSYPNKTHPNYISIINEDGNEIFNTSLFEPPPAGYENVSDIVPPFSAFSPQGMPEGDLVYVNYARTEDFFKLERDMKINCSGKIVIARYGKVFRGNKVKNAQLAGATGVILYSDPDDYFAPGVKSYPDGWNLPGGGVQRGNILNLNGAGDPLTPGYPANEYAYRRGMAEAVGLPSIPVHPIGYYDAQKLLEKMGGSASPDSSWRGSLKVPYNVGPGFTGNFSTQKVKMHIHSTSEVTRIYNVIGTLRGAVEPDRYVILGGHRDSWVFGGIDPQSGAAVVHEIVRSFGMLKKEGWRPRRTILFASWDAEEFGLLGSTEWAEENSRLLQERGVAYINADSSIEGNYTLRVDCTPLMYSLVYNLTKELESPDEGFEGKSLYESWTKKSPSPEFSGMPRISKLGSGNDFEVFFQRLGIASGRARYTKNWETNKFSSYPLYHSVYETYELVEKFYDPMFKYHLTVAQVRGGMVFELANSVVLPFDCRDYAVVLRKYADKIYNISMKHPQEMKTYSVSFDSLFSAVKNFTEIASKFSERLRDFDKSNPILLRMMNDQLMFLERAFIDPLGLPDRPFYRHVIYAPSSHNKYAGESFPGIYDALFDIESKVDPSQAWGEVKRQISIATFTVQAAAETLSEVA

B1: PS3B25 (bispecific antibody, human IgG4 S228P, kappa, lambda, F234A L235A)
heavy 1: not shown
light 1: not shown
heavy 2: EVQLVESGGGLVQPGGSLRLSCAASGFTFNTYAMNWVRQAPGKGLEWVARIRSKYNNYATYYAASVKGRFTISRDDSKNSLYLQMNSLKTEDTAVYYCARHGNFGNSYVSWFAYWGQGTLVTVSSASTKGPSVFPLAPCSRSTSESTAALGCLVKDYFPEPVTVSWNSGALTSGVHTFPAVLQSSGLYSLSSVVTVPSSSLGTKTYTCNVDHKPSNTKVDKRVESKYGPPCPPCPAPEAAGGPSVFLFPPKPKDTLMISRTPEVTCVVVDVSQEDPEVQFNWYVDGVEVHNAKTKPREEQFNSTYRVVSVLTVLHQDWLNGKEYKCKVSNKGLPSSIEKTISKAKGQPREPQVYTLPPSQEEMTKNQVSLTCLVKGFYPSDIAVEWESNGQPENNYKTTPPVLDSDGSFLLYSKLTVDKSRWQEGNVFSCSVMHEALHNHYTQKSLSLSLGK
light 2: QTVVTQEPSLTVSPGGTVTLTCRSSTGAVTTSNYANWVQQKPGQAPRGLIGGTNKRAPGTPARFSGSLLGGKAALTLSGVQPEDEAEYYCALWYSNLWVFGGGTKLTVLGQPKAAPSVTLFPPSSEELQANKATLVCLISDFYPGAVTVAWKADSSPVKAGVETTTPSKQSNNKYAASSYLSLTPEQWKSHRSYSCQVTHEGSTVEKTVAPTECS
notes: IgG4 PAA; also called PSMB87 x CD3B219
B2: PS3B30 (bispecific antibody, human IgG4 S228P, kappa, lambda, F234A L235A)
heavy 1: not shown
light 1: not shown
heavy 2: B1 heavy 2
light 2: B1 light 2
notes: IgG4 PAA; PSMA arm chains first, then CD3 arm (F405L, R409K); also called PSMB130 x CD3B219

How the values were obtained:
[1] = target: T1, chimpanzee PSMA, full length; experiment: flow cytometry, bispecific antibody titrated on chimp PSMA (PSMG9) HEK cells, anti-human kappa light chain PE
Experimental: PSMA×CD3 bispecific antibodies were tested for binding to PSMA positive cell lines LNCAP, human PSMA-HEK, Chimpanzee-PSMA-HEK and Cynomolgous monkey PSMA-HEK. To assess the binding capabilities of the PSMA bispecific antibodies, the cell-binding assay was utilized (described previously). Briefly, PSMA expressing tumor cells are bound by bispecific antibodies at known concentrations and the bound antibody is detected by an anti-human kappa light chain PE conjugated detection reagent (Invitrogen). The Mean Fluorescents Intensity (MFI) is the measure of bound bispecific antibody. The MFI is converted to a relative EC₅₀. EC₅₀ is a commonly used dose-response curve, where the half maximal effective concentration or the EC₅₀ point is defined as the inflection point of the curve. EC₅₀ s were determined by measuring cell bound bispecific and known concentrations. […] The dose response curves were then diluted down to that of background or no bispecific binding. The inflection point of this curve reflects the EC₅₀ point. The calculated EC₅₀ is determined by taking the ug/ml amount of bispecific antibody at the EC₅₀ point and converting it to a molarity value based on the MW of the bispecific antibody. Bispecific antibodies were normalized for protein concentration and then incubated with the same number of cells expressing either human or cyno PSMA. […]

[2] = target: T3, human PSMA (prostate specific membrane antigen), full length (human, UniProt Q04609 1-750); experiment: FACS, whole cell binding
T3 construct: On LNCaP or C4-2B cells (endogenous) or transduced HEK293F cells; also called FOLH1_HUMAN; hPSMA

[3] = target: T2, Cynomolgous monkey PSMA, full length; experiment: FACS, whole cell binding

Binder	binding result [1]	EC50 [2] [nM]	EC50 [3] [nM]
B1	binds		
B2		8 to 8.5	37.8 to 57
